According to publication doi:10.1101/846337:
pKd: −log10 of the molar value.

The substances below were run against F-actin (filamentous actin, purified from chicken breast) (Gallus gallus (chicken)) (UniProt P68139) (assay: co-sedimentation).
“UTRN-ABD V87D (from UniProt P46939 1-261) (domain or fragment)” was tested, and the pKd was < 4.00.
“UTRN-ABD H29A (from UniProt P46939 1-261) (domain or fragment)” gave a pKd of 5.55.
For “UTRN-ABD N109A (from UniProt P46939 1-261) (domain or fragment)”, the pKd was 4.26.
With “UTRN-ABD I22D (from UniProt P46939 1-261) (domain or fragment)” the pKd was 4.42.
“Human UTRN-ABD (utrophin actin binding domain, amino acids 1-261) (from UniProt P46939 1-261) (domain or fragment)” showed a pKd of 5.74.
